Data reported in paper PMC10889306, “ApoE Isoforms Inhibit Amyloid Aggregation of Proinflammatory Protein S100A9” (International Journal of Molecular Sciences, 2024).
Where “and” joins values, the source holds several entries; their conditions need not be identical. Equal values may be shown once.

Experiments:
[1] = molecular target: T1, ApoE3-DOPC (lipidated ApoE3) (human, UniProt P02649 19-317); assay: SDS-stable complex by SDS-PAGE and Western blot; 50 uM S100A9 with 2 uM lipid-free or lipidated ApoE isoform, PBS, 42 C, 70 h, non-stirring; reducing Laemmli buffer, 4-20% gel; Coomassie and Western blot with anti-S100A9 polyclonal antibody (Invitrogen); details: both partners purified
T1 construct: Apolipoprotein E, isoform ApoE3 (Cys112/Arg158), human; printed as a 299-residue lipoprotein; 'Lipidated full-length ApoE isoforms'; also called DOPC-ApoE3; source: bought: AlexoTech AB (recombinant)

[2] = molecular target: T2, ApoE4-DOPC (lipidated ApoE4) (human, UniProt P02649 19-317, Cys112 to Arg112); assay: as above; details: both partners purified
T2 construct: Apolipoprotein E, isoform ApoE4 (Arg112/Arg158), human; printed as a 299-residue lipoprotein; 'Lipidated full-length ApoE isoforms'; source: bought: AlexoTech AB (recombinant)

[3] = molecular target: the molecule itself; assay: as above
ApoE3 (lipid-free) [4] = molecular target: T3, ApoE3 (lipid-free) (human, UniProt P02649 19-317); assay: as above; details: both partners purified
T3 construct: Apolipoprotein E, isoform ApoE3 (Cys112/Arg158), human; printed as a 299-residue lipoprotein; the methods call the ApoE isoforms full-length; PDB 2L7B (NMR structure of full-length ApoE3) was used for the modelling only; also called Apolipoprotein E3; lipid-free ApoE3; source: bought: AlexoTech AB (recombinant), then size-exclusion chromatography (Superdex 200)

[5] = molecular target: the molecule itself; assay: SDS-stable complex by Western blot of pellet and SEC fractions; 100 uM S100A9 with 5 uM lipid-free ApoE4, PBS, 42 C, 70 h (methods: 72 h); centrifuged 14,000 rpm 15 min; pellet and Superdex 200 peaks of the supernatant on SDS-PAGE and Western blot with anti-S100A9 polyclonal antibodies (Santa Cruz)
ApoE4 (lipid-free) = molecular target: T4, ApoE4 (lipid-free) (human, UniProt P02649 19-317, Cys112 to Arg112); assay: cross-linking; native proteins, 4 uM S100A9 and 4 uM ApoE isoform (1:1), preincubated at 4 C overnight; glutaraldehyde at 10- and 100-fold molar excess, 30 min at 4 C, quenched with Tris; SDS-PAGE and Western blot with anti-S100A9 polyclonal antibodies; details: both partners purified
T4 construct: Apolipoprotein E, isoform ApoE4 (Arg112/Arg158), human; printed as a 299-residue lipoprotein; the methods call the ApoE isoforms full-length; Natural allele APOE e4; differs from ApoE3 only at position 112; also called Apolipoprotein E4; lipid-free ApoE4; source: bought: AlexoTech AB (recombinant), then size-exclusion chromatography (Superdex 200)

ApoE3 (lipid-free) [6] = molecular target: T3, ApoE3 (lipid-free); assay: as above; details: both partners purified

T4 sequence (P02649 other isoform, or with tags, fused parts or gaps Cys112 to Arg112 | Cys112 to Arg112): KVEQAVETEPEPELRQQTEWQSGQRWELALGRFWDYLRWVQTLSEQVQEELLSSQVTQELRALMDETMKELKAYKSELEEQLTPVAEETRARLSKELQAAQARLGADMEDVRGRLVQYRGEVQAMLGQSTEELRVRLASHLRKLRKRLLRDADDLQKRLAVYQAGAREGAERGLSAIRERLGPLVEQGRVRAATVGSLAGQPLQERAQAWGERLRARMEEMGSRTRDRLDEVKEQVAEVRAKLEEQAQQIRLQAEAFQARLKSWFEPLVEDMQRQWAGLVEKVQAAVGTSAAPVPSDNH
T3 sequence (P02649 19-317): as the sequence (P02649 other isoform, or with tags, fused parts or gaps Cys112 to Arg112 | Cys112 to Arg112) above, with R112C counted along it
T2 sequence (P02649 other isoform, or with tags, fused parts or gaps Cys112 to Arg112 | Cys112 to Arg112): as the sequence (P02649 other isoform, or with tags, fused parts or gaps Cys112 to Arg112 | Cys112 to Arg112) above
T1 sequence (P02649 19-317): as the sequence (P02649 other isoform, or with tags, fused parts or gaps Cys112 to Arg112 | Cys112 to Arg112) above, with R112C counted along it

B1: S100A9 (natural protein)
chain: KMSQLERNIETIINTFHQYSVKLGHPDTLNQGEFKELVRKDLQNFLKKENKNEKVIEHIMEDLDTNADKQLSFEEFIMLMARLTWASHEKMHEGDEGPGHHHKPGLGEGTP
notes: 13 kDa monomer on the gels; PDB 5I8N (S100A9 dimer, NMR) was used for the modelling only; also called native S100A9; S100A9 amyloids; source: Escherichia coli, purified as described previously [57]; Superdex 200 gel filtration for the cross-linking
stoichiometry N [1]: 1 S100A9 per ApoE | stoichiometry N [2]: 1 S100A9 per ApoE | stoichiometry N [3]: 3 | stoichiometry N (ApoE3 (lipid-free) [4]): 1 S100A9 per ApoE | stoichiometry N [5]: 2 | stoichiometry N (ApoE4 (lipid-free)): 1 S100A9 per ApoE and 2 S100A9 per ApoE | stoichiometry N (ApoE3 (lipid-free) [6]): 2 S100A9 per ApoE
